According to PMC11574045, “A cofactor-induced repressive type of transcription factor condensation can be induced by synthetic peptides to suppress tumorigenesis” (The EMBO Journal, 2024):

B1: PIAS4 (protein, UniProt Q9JM05 2-507, looked up)
E3 SUMO-protein ligase PIAS4: AAELVEAKNMVMSFRVSDLQMLLGFVGRSKSGLKHELVTRALQLVQFDCSPELFKKIKELYETRYAKKSAEPGPQAPRPLDPLALHSMPRTPLSGPTVDYPVLYGKYLNGLGRLPTKTLKPEVRLVKLPFFNMLDELLKPTELVPQSAEKLQESPCIFALTPRQVEMIRNSRELQPGVKAVQVVLRICYSDTSCPQEDQYPPNIAVKVNHSYCSVPGYYPSNKPGVEPKRPCRPINLTHLMYLSSATNRITVTWGNYGKSYSVALYLVRQLTSSDLLQRLKTIGVKHPELCKALVKEKLRLDPDSEIATTGVRVSLICPLVKMRLSVPCRAETCAHLQCFDAVFYLQMNEKKPTWMCPVCDKPAAYDQLIIDGLLSKILSECEGADEIEFLAEGSWRPIRAEKEPSCSPQGPILVLGTSDANGLAPASSTPGIGSGLSGPGSAGSGAGAAGSLENGKTGADVVDLTLDSSSSSEDEDEDEDDDEDEDEGPRPKRRCPFQKGLVPAC
B2: POU3F1 (protein, UniProt Q03052 1-451, looked up)
POU domain, class 3, …: MATTAQYLPRGPGGGAGGTGPLMHPDAAAAAAAAAAAERLHAGAAYREVQKLMHHEWLGAGAGHPVGLAHPQWLPTGGGGGGDWAGGPHLEHGKAGGGGTGRADDGGGGGGFHARLVHQGAAHAGAAWAQGSTAHHLGPAMSPSPGASGGHQPQPLGLYAQAAYPGGGGGGLAGMLAAGGGGAGPGLHHALHEDGHEAQLEPSPPPHLGAHGHAHGHAHAGGLHAAAAHLHPGAGGGGSSVGEHSDEDAPSSDDLEQFAKQFKQRRIKLGFTQADVGLALGTLYGNVFSQTTICRFEALQLSFKNMCKLKPLLNKWLEETDSSSGSPTNLDKIAAQGRKRKKRTSIEVGVKGALESHFLKCPKPSAHEITGLADSLQLEKEVVRVWFCNRRQKEKRMTPAAGAGHPPMDDVYAPGELGPGGGGASPPSAPPPPPPAALHHHHHHTLPGSVQ
B3: POU2F2 (protein, UniProt P09086 1-479, looked up)
POU domain, class 2, …: MVHSSMGAPEIRMSKPLEAEKQGLDSPSEHTDTERNGPDTNHQNPQNKTSPFSVSPTGPSTKIKAEDPSGDSAPAAPLPPQPAQPHLPQAQLMLTGSQLAGDIQQLLQLQQLVLVPGHHLQPPAQFLLPQAQQSQPGLLPTPNLFQLPQQTQGALLTSQPRAGLPTQAVTRPTLPDPHLSHPQPPKCLEPPSHPEEPSDLEELEQFARTFKQRRIKLGFTQGDVGLAMGKLYGNDFSQTTISRFEALNLSFKNMCKLKPLLEKWLNDAETMSVDSSLPSPNQLSSPSLGFDGLPGRRRKKRTSIETNVRFALEKSFLANQKPTSEEILLIAEQLHMEKEVIRVWFCNRRQKEKRINPCSAAPMLPSPGKPASYSPHMVTPQGGAGTLPLSQASSSLSTTVTTLSSAVGTLHPSRTAGGGGGGGGAAPPLNSIPSVTPPPPATTNSTNPSPQGSHSAIGLSGLNPSTGPGLWWNPAPYQP
B4: POLR3C (protein, UniProt Q9BUI4 1-534, looked up)
DNA-directed RNA polymerase …: MTQAEIKLCSLLLQEHFGEIVEKIGVHLIRTGSQPLRVIAHDTGTSLDQVKKALCVLVQHNLVSYQVHKRGVVEYEAQCSRVLRMLRYPRYIYTTKTLYSDTGELIVEELLLNGKLTMSAVVKKVADRLTETMEDGKTMDYAEVSNTFVRLADTHFVQRCPSVPTTENSDPGPPPPAPTLVINEKDMYLVPKLSLIGKGKRRRSSDEDAAGEPKAKRPKYTTDNKEPIPDDGIYWQANLDRFHQHFRDQAIVSAVANRMDQTSSEIVRTMLRMSEITTSSSAPFTQPLSSNEIFRSLPVGYNISKQVLDQYLTLLADDPLEFVGKSGDSGGGMYVINLHKALASLATATLESVVQERFGSRCARIFRLVLQKKHIEQKQVEDFAMIPAKEAKDMLYKMLSENFMSLQEIPKTPDHAPSRTFYLYTVNILSAARMLLHRCYKSIANLIERRQFETKENKRLLEKSQRVEAIIASMQATGAEEAQLQEIEEMITAPERQQLETLKRNVNKLDASEIQVDETIFLLESYIECTMKRQ
B5: POU2AF1 (protein, UniProt Q16633 1-256, looked up)
POU domain class …: MLWQKPTAPEQAPAPARPYQGVRVKEPVKELLRRKRGHASSGAAPAPTAVVLPHQPLATYTTVGPSCLDMEGSVSAVTEEAALCAGWLSQPTPATLQPLAPWTPYTEYVPHEAVSCPYSADMYVQPVCPSYTVVGPSSVLTYASPPLITNVTTRSSATPAVGPPLEGPEHQAPLTYFPWPQPLSTLPTSTLQYQPPAPALPGPQFVQLPISIPEPVLQDMEDPRRAASSLTIDKLLLEEEDSDAYALNHTLSVEGF
B6: POU3F2 (protein, UniProt P20265 1-443, looked up)
POU domain, class 3, …: MATAASNHYSLLTSSASIVHAEPPGGMQQGAGGYREAQSLVQGDYGALQSNGHPLSHAHQWITALSHGGGGGGGGGGGGGGGGGGGGGDGSPWSTSPLGQPDIKPSVVVQQGGRGDELHGPGALQQQHQQQQQQQQQQQQQQQQQQQQQRPPHLVHHAANHHPGPGAWRSAAAAAHLPPSMGASNGGLLYSQPSFTVNGMLGAGGQPAGLHHHGLRDAHDEPHHADHHPHPHSHPHQQPPPPPPPQGPPGHPGAHHDPHSDEDTPTSDDLEQFAKQFKQRRIKLGFTQADVGLALGTLYGNVFSQTTICRFEALQLSFKNMCKLKPLLNKWLEEADSSSGSPTSIDKIAAQGRKRKKRTSIEVSVKGALESHFLKCPKPSAQEITSLADSLQLEKEVVRVWFCNRRQKEKRMTPPGGTLPGAEDVYGGSRDTPPHHGVQTPVQ
B7: POU3F3 (protein, UniProt P20264 1-500, looked up)
POU domain, class 3, …: MATAASNPYLPGNSLLAAGSIVHSDAAGAGGGGGGGGGGGGGGAGGGGGGMQPGSAAVTSGAYRGDPSSVKMVQSDFMQGAMAASNGGHMLSHAHQWVTALPHAAAAAAAAAAAAVEASSPWSGSAVGMAGSPQQPPQPPPPPPQGPDVKGGAGRDDLHAGTALHHRGPPHLGPPPPPPHQGHPGGWGAAAAAAAAAAAAAAAAHLPSMAGGQQPPPQSLLYSQPGGFTVNGMLSAPPGPGGGGGGAGGGAQSLVHPGLVRGDTPELAEHHHHHHHHAHPHPPHPHHAQGPPHHGGGGGGAGPGLNSHDPHSDEDTPTSDDLEQFAKQFKQRRIKLGFTQADVGLALGTLYGNVFSQTTICRFEALQLSFKNMCKLKPLLNKWLEEADSSTGSPTSIDKIAAQGRKRKKRTSIEVSVKGALESHFLKCPKPSAQEITNLADSLQLEKEVVRVWFCNRRQKEKRMTPPGIQQQTPDDVYSQVGTVSADTPPPHHGLQTSVQ
B8: PIAS2 (protein, UniProt O75928 1-621, looked up)
E3 SUMO-protein ligase PIAS2: MADFEELRNMVSSFRVSELQVLLGFAGRNKSGRKHDLLMRALHLLKSGCSPAVQIKIRELYRRRYPRTLEGLSDLSTIKSSVFSLDGGSSPVEPDLAVAGIHSLPSTSVTPHSPSSPVGSVLLQDTKPTFEMQQPSPPIPPVHPDVQLKNLPFYDVLDVLIKPTSLVQSSIQRFQEKFFIFALTPQQVREICISRDFLPGGRRDYTVQVQLRLCLAETSCPQEDNYPNSLCIKVNGKLFPLPGYAPPPKNGIEQKRPGRPLNITSLVRLSSAVPNQISISWASEIGKNYSMSVYLVRQLTSAMLLQRLKMKGIRNPDHSRALIKEKLTADPDSEIATTSLRVSLMCPLGKMRLTIPCRAVTCTHLQCFDAALYLQMNEKKPTWICPVCDKKAAYESLILDGLFMEILNDCSDVDEIKFQEDGSWCPMRPKKEAMKVSSQPCTKIESSSVLSKPCSVTVASEASKKKVDVIDLTIESSSDEEEDPPAKRKCIFMSETQSSPTKGVLMYQPSSVRVPSVTSVDPAAIPPSLTDYSVPFHHTPISSMSSDLPGLDFLSLIPVDPQYCPPMFLDSLTSPLTASSTSVTTTSSHESSTHVSSSSSRSETGVITSSGSNIPDIISLD
B9: BACH1 (protein, UniProt O14867 1-736, looked up)
Transcription regulator …: MSLSENSVFAYESSVHSTNVLLSLNDQRKKDVLCDVTIFVEGQRFRAHRSVLAACSSYFHSRIVGQADGELNITLPEEVTVKGFEPLIQFAYTAKLILSKENVDEVCKCVEFLSVHNIEESCFQFLKFKFLDSTADQQECPRKKCFSSHCQKTDLKLSLLDQRDLETDEVEEFLENKNVQTPQCKLRRYQGNAKASPPLQDSASQTYESMCLEKDAALALPSLCPKYRKFQKAFGTDRVRTGESSVKDIHASVQPNERSENECLGGVPECRDLQVMLKCDESKLAMEPEETKKDPASQCPTEKSEVTPFPHNSSIDPHGLYSLSLLHTYDQYGDLNFAGMQNTTVLTEKPLSGTDVQEKTFGESQDLPLKSDLGTREDSSVASSDRSSVEREVAEHLAKGFWSDICSTDTPCQMQLSPAVAKDGSEQISQKRSECPWLGIRISESPEPGQRTFTTLSSVNCPFISTLSTEGCSSNLEIGNDDYVSEPQQEPCPYACVISLGDDSETDTEGDSESCSAREQECEVKLPFNAQRIISLSRNDFQSLLKMHKLTPEQLDCIHDIRRRSKNRIAAQRCRKRKLDCIQNLESEIEKLQSEKESLLKERDHILSTLGETKQNLTGLCQKVCKEAALSQEQIQILAKYSAADCPLSFLISEKDKSTPDGELALPSIFSLSDRPPAVLPPCARGNSEPGYARGQESQQMSTATSEQAGPAEQCRQSGGISDFCQQMTDKCTTDE
B10: PGR (protein, UniProt P06401 1-933, looked up)
Progesterone receptor: MTELKAKGPRAPHVAGGPPSPEVGSPLLCRPAAGPFPGSQTSDTLPEVSAIPISLDGLLFPRPCQGQDPSDEKTQDQQSLSDVEGAYSRAEATRGAGGSSSSPPEKDSGLLDSVLDTLLAPSGPGQSQPSPPACEVTSSWCLFGPELPEDPPAAPATQRVLSPLMSRSGCKVGDSSGTAAAHKVLPRGLSPARQLLLPASESPHWSGAPVKPSPQAAAVEVEEEDGSESEESAGPLLKGKPRALGGAAAGGGAAAVPPGAAAGGVALVPKEDSRFSAPRVALVEQDAPMAPGRSPLATTVMDFIHVPILPLNHALLAARTRQLLEDESYDGGAGAASAFAPPRSSPCASSTPVAVGDFPDCAYPPDAEPKDDAYPLYSDFQPPALKIKEEEEGAEASARSPRSYLVAGANPAAFPDFPLGPPPPLPPRATPSRPGEAAVTAAPASASVSSASSSGSTLECILYKAEGAPPQQGPFAPPPCKAPGASGCLLPRDGLPSTSASAAAAGAAPALYPALGLNGLPQLGYQAAVLKEGLPQVYPPYLNYLRPDSEASQSPQYSFESLPQKICLICGDEASGCHYGVLTCGSCKVFFKRAMEGQHNYLCAGRNDCIVDKIRRKNCPACRLRKCCQAGMVLGGRKFKKFNKVRVVRALDAVALPQPVGVPNESQALSQRFTFSPGQDIQLIPPLINLLMSIEPDVIYAGHDNTKPDTSSSLLTSLNQLGERQLLSVVKWSKSLPGFRNLHIDDQITLIQYSWMSLMVFGLGWRSYKHVSGQMLYFAPDLILNEQRMKESSFYSLCLTMWQIPQEFVKLQVSQEEFLCMKVLLLLNTIPLEGLRSQTQFEEMRSSYIRELIKAIGLRQKGVVSSSQRFYQLTKLLDNLHDLVKQLHLYCLNTFIQSRALSVEFPEMMSEVIAAQLPKILAGMVKPLLFHKK

Each molecule was assayed on HEK293FT cells transfected with TF library (assay: Screening of TF condensates based on fluorescent puncta). Settings: Figure 1B numerical data; TF library screen, one value per transcriptional factor.
Assay type: cell-based
Procedure, shortened: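 HEK293FT, PEI transfection of TF library, 60 h; ±glucose 12 h; 4% PFA fix, 0.05% Triton X-100 permeabilization, 5% BSA block; anti-Flag/anti-GAL4 overnight at 4 °C, Alexa 488 secondary 1 h; high-content imaging, 50 fields/well.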
For B1, the “Z score of condensed fraction” value was -0.6594. With B2 the “Z score of condensed fraction” value was -0.6601. For B3, the “Z score of condensed fraction” value was -0.2237. B4 was tested, and the “Z score of condensed fraction” value was 2.0488. For B5, the “Z score of condensed fraction” value was 2.502. B6 was tested, and the “Z score of condensed fraction” value was -0.6292. For B7, the “Z score of condensed fraction” value was 1.399. With B8 the “Z score of condensed fraction” value was -0.03329. B9 was tested, and the “Z score of condensed fraction” value was -0.5247. B10 was tested, and the “Z score of condensed fraction” value was 1.815.
